Common to all, as to test: phosphorylase kinetics, synthetic direction
What all share (type): biochemical, Acetivibrio thermocellus
What all share (details): acceptor cellobiose (1), matched acceptor; apparent

Substrate in data set [1]: N[C@H]1[C@@H](OP(=O)(O)O)O[C@H](CO)[C@@H](O)[C@@H]1O
The source says: (§1) phosphorylase kinetics, synthetic direction on cellodextrin phosphorylase (CDP)

Substrate in data set [2]: O=P(O)(O)O[C@H]1O[C@H](CO)[C@@H](O)[C@H](O)[C@H]1O
From the text: as §1

Substrate in data set [3]: O=P(O)(O)O[C@H]1O[C@H](CO)[C@H](O)[C@H](O)[C@H]1O
From the text: as §1

B1: cellodextrin phosphorylase (CDP) (Acetivibrio thermocellus) (protein)
chain: MITKVTARNNKITPVELLNQKFGNKINLGNFADAVFTDAAFKNVAGIANLPMKAPVMQVLMENCIVSKYLKQFVPDRSVCFVEEGQKFYIVLEDGQKIEVPEDVNKALKATVSDVKHWAGYLTEDGEHVIDLLKPAPGPHFYVNLLIGNRLGFKRTLQTTPKSVVDRFGRGSFRSHAATQVLATRFDMRQEENGFPANRQFYLYEDGKQIFYSALIDDNIVEATCKHSCNRTVIKYKTACNLEITRTIFLVPHKKGFPLATELQRIEIKNASDKARNLSITYTGMFGTGAVHAIFEDVTYTNVIMQSAALYNDKGEFIGITPDYYPEEFKQDTRFVTMIVRNGDEKSFPQSFCTDYNDFVGTGTLEHPAGGCNLNNKLNRKGPGFFALGAPFTVEPGKTVIIDTFTGLSSSKDNENYSDAVMLRELDNLLRYFEKSESVEETLNEIINFHENYGKYFQFNTGNKLFDSGFNRNLAFQVLYQTFMSRSFGQTQKGYREIGFREIQDLFASMYYFINIGYQDFVKELLFEWTANVYKMGYANHNFYWVGKQPGLYSDDSLWLLQAYYRYIIYTKDTSVLNEEVPVADGNNEKRAVRETLKAIIQYSACISVGDHGLPLLDLADWNDCLKIASNSIDGATKEKLYYEQLKKTNGKYGDRFMSDYSESVMNAFLLKLAIDHLAEIATLDNDTQLAQQMSELSKEVTDRIQKHAWKENFFARVLINRYKDGSYTYLGAKGDKLSADPNIDGVYFLNSFAWSVLSDVATDEQIAIMVDVIKKHLLTPYGLRLVTPADLNKIANDTATGHYFFGDRENGAVFKHASMMAVAALIKAAKKVKDNELAKEMARIAYFMIDLVLPYKNLENPFQVAGNPRICTQYINTDTGENIGPLLSGTATWLNLNLISLAGIEYTRDGISFNPILREEETQLNFTLKAPKCSYKFSITKPVGFARMESSEYELFVDGQKIDNTVIPMYTDEKEHIVTLKFK
notes: wild type, GH94, recombinant from Escherichia coli; homodimer
Turning to B1, in data set [1], the Km came to 1600 ± 200 µM, the kcat is 0.08 ± 0.003 s⁻¹ and the kcat/Km amounted to 50 M⁻¹ s⁻¹. Also, in data set [2], the Km is 3000 ± 600 µM, the kcat worked out at 16.4 ± 0.7 s⁻¹ and the kcat/Km is 5500 M⁻¹ s⁻¹. Besides, in data set [3], the Km was 9300 ± 1100 µM, the kcat was found to be 0.60 ± 0.02 s⁻¹ and the kcat/Km was 60 M⁻¹ s⁻¹.

The values are drawn from article PMC7187349, “Preparative and Kinetic Analysis of β‐1,4‐ and β‐1,3‐Glucan Phosphorylases Informs Access to Human Milk Oligosaccharide Fragments and Analogues Thereof” (Chembiochem, 2019).
